Conditions in all cases: protein: recombinant; tags: C-terminal poly-His (pET21); label: 5' 32P; single strand
For one data set, the target named is T1, PhrB Y430F (Agrobacterium fabrum, UniProt A9CH39 1-507, Y430F).
T1 sequence: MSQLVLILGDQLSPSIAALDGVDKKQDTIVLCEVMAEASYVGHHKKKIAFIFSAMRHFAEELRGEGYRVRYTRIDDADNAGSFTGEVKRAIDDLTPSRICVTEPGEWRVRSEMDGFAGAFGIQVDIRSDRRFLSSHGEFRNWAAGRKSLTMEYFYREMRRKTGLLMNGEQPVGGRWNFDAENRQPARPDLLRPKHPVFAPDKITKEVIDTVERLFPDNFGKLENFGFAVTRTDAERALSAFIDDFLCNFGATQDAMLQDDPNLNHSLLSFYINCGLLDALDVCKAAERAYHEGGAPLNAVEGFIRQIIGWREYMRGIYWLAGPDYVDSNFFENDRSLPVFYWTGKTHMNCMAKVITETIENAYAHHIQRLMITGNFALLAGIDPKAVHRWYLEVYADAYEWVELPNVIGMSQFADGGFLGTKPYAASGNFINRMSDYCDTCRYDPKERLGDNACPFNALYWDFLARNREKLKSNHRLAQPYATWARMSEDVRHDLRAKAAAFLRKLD
Briefly: EMSA; reduced FAD, darkness; […] (buffer 1: 50 mM Tris-HCl pH 7.0, 1 mM EDTA, 100 mM NaCl, 5% glycerol, 20 mM DTT); or buffer 2: pH 7.5, 10 mM DTT; […]. In general terms: A gel shift assay detects complexes by their altered migration in electrophoresis.

Another data set concerns the target T2, PhrB Y460F (Agrobacterium fabrum, UniProt A9CH39 1-507, Y460F).
T2 sequence: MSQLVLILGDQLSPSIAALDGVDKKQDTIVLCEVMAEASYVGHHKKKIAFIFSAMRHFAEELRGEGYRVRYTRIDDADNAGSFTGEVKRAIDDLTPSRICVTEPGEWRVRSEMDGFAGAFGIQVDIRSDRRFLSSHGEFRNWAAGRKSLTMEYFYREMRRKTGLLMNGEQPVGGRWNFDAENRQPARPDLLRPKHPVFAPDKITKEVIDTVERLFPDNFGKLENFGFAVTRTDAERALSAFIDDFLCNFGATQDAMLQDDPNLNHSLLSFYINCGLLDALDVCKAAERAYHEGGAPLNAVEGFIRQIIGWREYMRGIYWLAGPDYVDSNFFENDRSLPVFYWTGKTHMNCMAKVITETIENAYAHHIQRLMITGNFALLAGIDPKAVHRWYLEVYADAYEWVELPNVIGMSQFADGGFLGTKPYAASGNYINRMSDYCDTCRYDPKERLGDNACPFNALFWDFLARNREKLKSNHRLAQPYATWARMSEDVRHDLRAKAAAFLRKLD
The data set is described as above.

For a further data set, the target named is T3, PhrB Y424F (Agrobacterium fabrum, UniProt A9CH39 1-507, Y424F).
T3 sequence: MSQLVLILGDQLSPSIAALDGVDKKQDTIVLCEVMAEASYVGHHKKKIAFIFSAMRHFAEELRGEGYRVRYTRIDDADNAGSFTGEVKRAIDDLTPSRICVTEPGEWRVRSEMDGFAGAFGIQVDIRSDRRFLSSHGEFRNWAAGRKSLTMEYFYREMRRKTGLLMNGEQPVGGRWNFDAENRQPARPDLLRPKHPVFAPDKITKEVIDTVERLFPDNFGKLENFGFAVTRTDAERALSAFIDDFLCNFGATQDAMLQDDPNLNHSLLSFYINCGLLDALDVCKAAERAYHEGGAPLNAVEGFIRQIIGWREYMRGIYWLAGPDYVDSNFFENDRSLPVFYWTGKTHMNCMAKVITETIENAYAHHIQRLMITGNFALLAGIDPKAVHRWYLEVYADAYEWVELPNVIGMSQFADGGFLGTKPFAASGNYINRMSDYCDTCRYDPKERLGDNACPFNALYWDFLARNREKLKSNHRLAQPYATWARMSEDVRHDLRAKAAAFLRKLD
Described as above.

Another data set addresses T4, PhrB (Agrobacterium fabrum, UniProt A9CH39 1-507).
T4 sequence: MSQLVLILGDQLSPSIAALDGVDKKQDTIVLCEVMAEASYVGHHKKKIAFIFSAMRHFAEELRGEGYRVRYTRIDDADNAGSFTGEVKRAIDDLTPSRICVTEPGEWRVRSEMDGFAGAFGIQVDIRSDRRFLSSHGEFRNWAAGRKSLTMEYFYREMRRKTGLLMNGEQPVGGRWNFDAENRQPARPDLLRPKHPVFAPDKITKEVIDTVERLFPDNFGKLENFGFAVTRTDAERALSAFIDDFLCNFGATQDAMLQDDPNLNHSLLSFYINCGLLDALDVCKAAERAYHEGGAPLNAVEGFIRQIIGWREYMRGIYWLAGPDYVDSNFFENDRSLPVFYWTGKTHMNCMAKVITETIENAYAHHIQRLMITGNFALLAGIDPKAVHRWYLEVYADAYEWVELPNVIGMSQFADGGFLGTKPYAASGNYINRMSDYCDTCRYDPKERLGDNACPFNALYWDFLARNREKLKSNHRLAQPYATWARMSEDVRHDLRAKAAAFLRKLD
The experiment in a line: EMSA; reduced FAD, darkness; EMSA in repair buffer (buffer 1: 50 mM Tris-HCl pH 7.0, 1 mM EDTA, 100 mM NaCl, 5% glycerol, 20 mM DTT; or buffer 2: pH 7.5, 10 mM DTT; which one not stated), 28 nM DNA, 10% TBE-PAGE at 4 C in darkness.

For orientation: Kd means a measure of binding affinity in units of concentration.

As to CATAGGTTGGCATA (ssDNA) [EMSA_1 undamaged], the Kd with PhrB Y430F is 27 ± 2 µM; in the data set with PhrB Y460F, 25 ± 3 µM; in the data set with PhrB Y424F it was 28 ± 3 µM; with PhrB, 25 ± 3 µM.

As to CATAGGTTGGCATA (ssDNA, (6-4) photoproduct at T7-T8 (the only TT; 254 nm UV, HPLC purified)) [EMSA_1 (6-4)TT photoproduct], the dissociation constant Kd in the data set with PhrB Y430F was 0.027 ± 0.003 µM; in the data set with PhrB Y460F, 0.025 ± 0.003 µM; with PhrB Y424F, 18 ± 2 µM; in the data set with PhrB, 0.013 ± 0.002 µM.

(Values after PMC4619345, “Key Amino Acids in the Bacterial (6-4) Photolyase PhrB from Agrobacterium fabrum”.)
